Measured values published in paper PMC3711432, “The Fanconi anemia associated protein FAAP24 uses two substrate specific binding surfaces for DNA recognition”.

Columns and labels:
FAAP24 HhH V162A V162A = FAAP24 HhH V162A V162A (UniProt Q9BTP7); assay: EMSA; settings: EMSA: 10 mM Tris pH 7.0, 10 mM NaCl (high salt: 50 mM NaHPO4, 400 mM NaCl), 5% glycerol, 1 mM DTT, 20 ug/ml BSA, on ice, gel at 4 C; NMR: 50 mM NaHPO4 pH 6.5 …
FAAP24 HhH domain [1] = molecular target: T1, FAAP24 HhH domain (UniProt Q9BTP7 139-215); assay: NMR; 100 mM NaCl; EMSA: 10 mM Tris pH 7.0, 10 mM NaCl (high salt: 50 mM NaHPO4, 400 mM NaCl), 5% glycerol, 1 mM DTT, 20 ug/ml BSA, on ice, gel at 4 C; NMR: 50 mM NaHPO4 pH 6.5, 100 mM NaCl, 8% D2O, 298 K; settings: protein: recombinant; tags: N-terminal His; fork: 10 bp, two 20 nt arms
T1 sequence: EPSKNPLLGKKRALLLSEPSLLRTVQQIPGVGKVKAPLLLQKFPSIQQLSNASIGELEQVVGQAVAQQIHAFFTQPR

FAAP24 HhH domain [2] = molecular target: T1, FAAP24 HhH domain; assay: EMSA; 10 mM NaCl; apparent Kd; EMSA: 10 mM Tris pH 7.0, 10 mM NaCl (high salt: 50 mM NaHPO4, 400 mM NaCl), 5% glycerol, 1 mM DTT, 20 ug/ml BSA, on ice, gel at 4 C; NMR: 50 mM NaHPO4 pH 6.5, 100 mM NaCl, 8% D2O, 298 K; settings: protein: recombinant, tags: N-terminal His, label: radiolabeled
FAAP24 HhH domain [3] = molecular target: T1, FAAP24 HhH domain; assay: NMR; 100 mM NaCl; CSPs in N-terminal linker; EMSA: 10 mM Tris pH 7.0, 10 mM NaCl (high salt: 50 mM NaHPO4, 400 mM NaCl), 5% glycerol, 1 mM DTT, 20 ug/ml BSA, on ice, gel at 4 C; NMR: 50 mM NaHPO4 pH 6.5, 100 mM NaCl, 8% D2O, 298 K; settings: protein: recombinant; tags: N-terminal His; single strand
FAAP24 HhH domain [4] = molecular target: T1, FAAP24 HhH domain; assay: NMR; 100 mM NaCl; CSPs comparable with splayed arm; EMSA: 10 mM Tris pH 7.0, 10 mM NaCl (high salt: 50 mM NaHPO4, 400 mM NaCl), 5% glycerol, 1 mM DTT, 20 ug/ml BSA, on ice, gel at 4 C; NMR: 50 mM NaHPO4 pH 6.5, 100 mM NaCl, 8% D2O, 298 K; settings: protein: recombinant; tags: N-terminal His; 5' overhang 20 nt
FAAP24 HhH K171A/K173A = molecular target: T2, FAAP24 HhH K171A/K173A (UniProt Q9BTP7 139-215, K171A;K173A); assay: EMSA; EMSA: 10 mM Tris pH 7.0, 10 mM NaCl (high salt: 50 mM NaHPO4, 400 mM NaCl), 5% glycerol, 1 mM DTT, 20 ug/ml BSA, on ice, gel at 4 C; NMR: 50 mM NaHPO4 pH 6.5, 100 mM NaCl, 8% D2O, 298 K; settings: protein: recombinant, tags: N-terminal His, (radiolabeled) in EMSA, bubble: 10 bp stem, 10 unpaired nt
T2 sequence: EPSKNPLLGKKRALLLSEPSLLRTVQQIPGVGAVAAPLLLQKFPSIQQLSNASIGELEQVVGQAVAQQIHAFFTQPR

FAAP24 HhH R161A = molecular target: T3, FAAP24 HhH R161A (UniProt Q9BTP7 139-215, R161A); assay: as above; settings: protein: recombinant, tags: N-terminal His, (radiolabeled) in EMSA, bubble: 10 bp stem, 10 unpaired nt
T3 sequence: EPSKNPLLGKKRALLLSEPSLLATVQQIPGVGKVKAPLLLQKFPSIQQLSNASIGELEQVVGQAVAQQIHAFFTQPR

FAAP24 HhH K173A = molecular target: T4, FAAP24 HhH K173A (UniProt Q9BTP7 139-215, K173A); assay: as above; settings: protein: recombinant, tags: N-terminal His, (radiolabeled) in EMSA, bubble: 10 bp stem, 10 unpaired nt
T4 sequence: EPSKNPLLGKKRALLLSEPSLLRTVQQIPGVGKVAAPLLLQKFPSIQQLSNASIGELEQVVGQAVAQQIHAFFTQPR

FAAP24 HhH Q205A/Q206A = molecular target: T5, FAAP24 HhH Q205A/Q206A (UniProt Q9BTP7 139-215, Q205A;Q206A); assay: EMSA; no significant effect on affinity vs wt; EMSA: 10 mM Tris pH 7.0, 10 mM NaCl (high salt: 50 mM NaHPO4, 400 mM NaCl), 5% glycerol, 1 mM DTT, 20 ug/ml BSA, on ice, gel at 4 C; NMR: 50 mM NaHPO4 pH 6.5, 100 mM NaCl, 8% D2O, 298 K; settings: protein: recombinant, tags: N-terminal His, (radiolabeled) in EMSA, bubble: 10 bp stem, 10 unpaired nt
T5 sequence: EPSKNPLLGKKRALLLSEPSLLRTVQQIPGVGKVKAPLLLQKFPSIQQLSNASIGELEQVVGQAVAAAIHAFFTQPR

FAAP24 HhH domain [5] = molecular target: T1, FAAP24 HhH domain; assay: EMSA; 10 mM NaCl; apparent Kd, multiple complexes; EMSA: 10 mM Tris pH 7.0, 10 mM NaCl (high salt: 50 mM NaHPO4, 400 mM NaCl), 5% glycerol, 1 mM DTT, 20 ug/ml BSA, on ice, gel at 4 C; NMR: 50 mM NaHPO4 pH 6.5, 100 mM NaCl, 8% D2O, 298 K; settings: protein: recombinant, tags: N-terminal His, (radiolabeled) in EMSA, bubble: 10 bp stem, 10 unpaired nt
FAAP24 full length = molecular target: T6, FAAP24 full length (UniProt Q9BTP7 1-215); assay: NMR; CSPs in hairpin 1, C-terminus and ERCC4-like domain; EMSA: 10 mM Tris pH 7.0, 10 mM NaCl (high salt: 50 mM NaHPO4, 400 mM NaCl), 5% glycerol, 1 mM DTT, 20 ug/ml BSA, on ice, gel at 4 C; NMR: 50 mM NaHPO4 pH 6.5, 100 mM NaCl, 8% D2O, 298 K; settings: protein: recombinant; tags: N-terminal His; blunt
T6 sequence: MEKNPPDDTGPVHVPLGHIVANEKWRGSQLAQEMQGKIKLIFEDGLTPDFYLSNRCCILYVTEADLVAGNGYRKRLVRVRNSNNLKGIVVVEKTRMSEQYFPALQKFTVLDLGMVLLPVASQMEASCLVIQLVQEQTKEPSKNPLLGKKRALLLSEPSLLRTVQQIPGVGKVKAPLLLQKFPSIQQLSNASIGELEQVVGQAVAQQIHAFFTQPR

FAAP24 HhH domain [6] = molecular target: T1, FAAP24 HhH domain; assay: NMR; 100 mM NaCl; CSPs in hairpin 1; EMSA: 10 mM Tris pH 7.0, 10 mM NaCl (high salt: 50 mM NaHPO4, 400 mM NaCl), 5% glycerol, 1 mM DTT, 20 ug/ml BSA, on ice, gel at 4 C; NMR: 50 mM NaHPO4 pH 6.5, 100 mM NaCl, 8% D2O, 298 K; settings: protein: recombinant; tags: N-terminal His; blunt

GGGCGGCGGGTTTTTTTTTTGGCGGGGCGG / CCGCCCCGCCTTTTTTTTTTCCCGCCGCCC [B10 bubble]
binding signal (fold decrease in affinity vs wt) (FAAP24 HhH V162A V162A): 2

B1: splayed arm with 20 nt arms (mixed)
DNA 1: GGGCGGCGGGCGGATAGATTGAAATCTTAG
DNA 2: GATTCTAAAGTTAGATAGGCCCCGCCGCCC
binding result (FAAP24 HhH domain [1]): binds

TGCGAATTCATATGCAATATTCAGTGGCTGAGCTACTGG (ssDNA) [ss39]
Kd (FAAP24 HhH domain [2]; single strand): 7.8 ± 0.4 µM

TTTTTTTTTTTTTTTTTTTT (ssDNA) [ss20 (dT20)]
binding result (FAAP24 HhH domain [3]): binds

B2: ds30 (dsDNA)
DNA 1: GGGCGGCGGGTTTTTTTTTTGGCGGGGCGG
DNA 2: CCGCCCCGCCAAAAAAAAAACCCGCCGCCC
Kd (FAAP24 HhH domain [2]; blunt): 9.1 ± 0.9 µM

B3: 5' extension (mixed)
DNA: GATTCTAAAGTTAGATAGGCCCCGCCGCCC
?: GGGCGGCGGG
binding result (FAAP24 HhH domain [4]): binds

B4: B10 bubble (mixed)
DNA 1: GGGCGGCGGGTTTTTTTTTTGGCGGGGCGG
DNA 2: CCGCCCCGCCTTTTTTTTTTCCCGCCGCCC
binding signal (FAAP24 HhH K171A/K173A): 4 fold decrease in affinity vs wt
binding signal (FAAP24 HhH R161A): 2 fold decrease in affinity vs wt
binding signal (FAAP24 HhH K173A): 3 fold decrease in affinity vs wt
binding result (FAAP24 HhH Q205A/Q206A): binds
Kd (FAAP24 HhH domain [5]): 1.2 ± 0.2 µM

B5: ds10 (dsDNA)
DNA 1: GGGCGGCGGG
DNA 2: CCCGCCGCCC
binding result (FAAP24 full length): binds
binding result (FAAP24 HhH domain [6]): binds
